Assays:
[1] = target: N-terminal His-tagged version of serum resistance associated protein (SRA) (aa 1-251), wild type (Trypanosoma brucei rhodesiense); test: pull-down of in vitro synthesized [35S]-apoL-I mutant with His-SRA on Ni-NTA beads, scintillation counting
[2] = target: I58Q/I62Q serum resistance associated protein (SRA), His-tagged (Trypanosoma brucei rhodesiense); test: pull-down of in vitro synthesized [35S]-apoL-I with mutant His-SRA on Ni-NTA beads, scintillation counting

[35S]-apoL-I truncated version ending at aa 342, with C-terminal V5 tag (from UniProt O14791 28-342)
binding (%) [1]: 5%

[35S]-apoL-I L345Y/L352A/Y354L point mutant, with C-terminal V5 tag (from UniProt O14791 16-398)
binding (%) [1]: 67%

[35S]-apoL-I truncated version ending at aa 355, with C-terminal V5 tag (from UniProt O14791 28-355)
binding (%) [1]: 24%

in vitro synthesized [35S]-apoL-I, wild type, with C-terminal V5 tag (from UniProt O14791 16-398)
binding (%) [2]: 50%

Reference: US7585511
